Data taken from article PMC5127644, “SPRTN is a mammalian DNA-binding metalloprotease that resolves DNA-protein crosslinks”.

How the values were obtained:
SPRTN full length = biological target: T1, SPRTN full length (Homo sapiens, UniProt Q9H040 1-489); experiment: EMSA; 5 uM ZnSO4; EMSA: 10 mM Tris-HCl pH 7.5, 0.2 mM DTT, 5 uM ZnSO4, 0.25 uM DNA, 30 uL, 30 min at 20 C, 1.5% agarose gel; conditions: protein: recombinant, tags: Z-basic-His tag, TEV-cleaved (E. coli, pNIC-ZB)
T1 sequence: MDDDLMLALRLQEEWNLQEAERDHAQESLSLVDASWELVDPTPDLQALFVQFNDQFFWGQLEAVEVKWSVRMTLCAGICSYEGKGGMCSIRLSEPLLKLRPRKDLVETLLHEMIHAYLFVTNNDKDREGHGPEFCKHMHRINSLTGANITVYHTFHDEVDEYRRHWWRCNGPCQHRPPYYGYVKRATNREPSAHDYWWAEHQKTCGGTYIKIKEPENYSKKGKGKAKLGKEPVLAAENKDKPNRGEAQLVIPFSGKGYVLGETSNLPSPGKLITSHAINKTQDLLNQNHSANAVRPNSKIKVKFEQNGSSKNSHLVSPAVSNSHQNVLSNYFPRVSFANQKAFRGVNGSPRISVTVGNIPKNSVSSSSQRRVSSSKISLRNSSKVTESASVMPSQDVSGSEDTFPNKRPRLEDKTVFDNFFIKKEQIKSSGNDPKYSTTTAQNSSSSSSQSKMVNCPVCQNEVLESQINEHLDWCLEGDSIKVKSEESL

SPRTN-∆C (a.a. 1-216) = biological target: T2, SPRTN-∆C (a.a. 1-216) (Homo sapiens, UniProt Q9H040 1-216); experiment: as above; conditions: protein: recombinant, tags: His tag (pNIC28-Bsa4), TEV-cleaved (E. coli)
T2 sequence: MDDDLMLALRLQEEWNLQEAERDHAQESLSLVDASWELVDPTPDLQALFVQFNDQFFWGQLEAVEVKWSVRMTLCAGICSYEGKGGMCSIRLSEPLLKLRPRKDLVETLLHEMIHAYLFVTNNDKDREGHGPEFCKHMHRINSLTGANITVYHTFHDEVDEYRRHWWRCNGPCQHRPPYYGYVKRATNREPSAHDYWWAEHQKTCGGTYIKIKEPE

[1] = label: 6-FAM (5' as drawn), single strand
[2] = label: 6-FAM on strand 1, blunt

GCGCGCCCATTGATACTAAATTCAAGGATGACTTATTTC (ssDNA) [6-FAM-ssODN 39-mer]: binds (SPRTN full length; [1]); no binding (SPRTN-∆C (a.a. 1-216); [1]).

B1: 6-FAM-dsODN 39-mer (dsDNA)
DNA 1: GCGCGCCCATTGATACTAAATTCAAGGATGACTTATTTC
DNA 2: GAAATAAGTCATCCTTGAATTTAGTATCAATGGGCGCGC
B1: binds (SPRTN full length; [2]); no binding (SPRTN-∆C (a.a. 1-216); [2]).
